# T1: wild-type human Claudin 5 protein (human, UniProt O00501 1-218)
# T1 construct: also called hCLDN5; CLDN 5
# T1 sequence: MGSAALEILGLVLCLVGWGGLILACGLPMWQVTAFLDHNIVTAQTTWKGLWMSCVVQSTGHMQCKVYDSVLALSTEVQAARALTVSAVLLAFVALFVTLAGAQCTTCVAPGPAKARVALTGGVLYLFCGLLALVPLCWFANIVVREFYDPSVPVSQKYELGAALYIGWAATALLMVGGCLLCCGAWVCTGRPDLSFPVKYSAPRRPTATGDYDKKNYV
# Target: T1, wild-type human Claudin 5 protein
# Assay: FACS screening of hybridoma supernatants on human Claudin 5-expressing HT-1080 cells against mock cells; positive clones
# Protocol: The cells were washed three times with 0.2% BSA-TBS, and then mixed with 100 μL of a secondary antibody solution (FITC conjugated goat anti-mouse IgG+IgM in 1% BSA-PBS (1:400)), followed by a reaction at 4° C. for 1 hour. The cells were washed with 0.2% BSA-TBS, and FACS analysis (FACS caliber, BD Bioscience) was performed.
row,Binder,binding result
1,"antibody 1D1 (antibody, IgG2a, V domains shown, Tested as hybridoma culture supernatant in the screening; also called antibody F) VH: QVQLQQPGAEHVKPGASVKLSCKASGYTFTTYWIHWVKQRPGRGLEWIGRIAPNSGGTKYNENFKSKATLTVDRPSTTAYMQLSGLTSEDSAVYYCARWDFTFGTNLDYWGQGTTLTVSS VL: DIVMTQSQKFMSTSVGDRVSITCKASQNVRTAVAWYQQKPGQSPKALIFLASNRHTGVPDRFTGSGSGTDFTLTITNVQSEDLADYFCLQHWTYPYTFGGGTKLEIKR",binds
2,"antibody 3A5 (antibody, IgG2a, V domains shown, Tested as hybridoma culture supernatant in the screening; also called antibody G) VH: QVQLQQPGTELVKPGASVKLSCKASGYTFTSYWMHWVKQRPGQGLEWIGNINPSNGGTNYNEKFKSKATLTVDKSSTTAYMLLSSLTSEDSAVYYCARYYGSSFLYWYFDVWGTGTTVTVSS VL: DIVMTQSHKFMSSSVGDRVSITCKASQDVGTAVAWYQQKPGQSPKILIYWASTRHTGVPDRFTGSGSGTDFTLTISNVQSEDLADYFCQQYSSYPTFGSGTKLEIKR",binds
3,"antibody 1B3 (antibody, IgG2, V domains shown, Tested as hybridoma culture supernatant in the screening; also called antibody E) VH: QIQLVQSGPELKKPGETVKISCKASGYSFTAHGMSWVKQAPGKGLKWMGWINTYSGVPAYADDFKGRFAFSLETSPSTAFLQINNLKNEDTATYFCTRSHYDRKFGYWGQGTLVTVSA VL: QAVVTQESALTTSPGETVTLTCRSSTGAVTTSNYANWVQEKPDHLFTGLIGDTNNRAPGVPARFSGSLIGDKAALTITGAQTGDEAIYFCALWYSNLWVFGGGTKLTVRG",binds
